B1: Succinate dehydrogenase assembly factor 1, mitochondrial (Homo sapiens), A6NFY7 (parent)
chain: MSRHSRLQRQVLSLYRDLLRAGRGKPGAEARVRAEFRQHAGLPRSDVLRIEYLYRRGRRQLQLLRSGHATAMGAFVRPRAPTGEPGGVGCQPDDGDSPRNPHDSTGAPETRPDGR
partner: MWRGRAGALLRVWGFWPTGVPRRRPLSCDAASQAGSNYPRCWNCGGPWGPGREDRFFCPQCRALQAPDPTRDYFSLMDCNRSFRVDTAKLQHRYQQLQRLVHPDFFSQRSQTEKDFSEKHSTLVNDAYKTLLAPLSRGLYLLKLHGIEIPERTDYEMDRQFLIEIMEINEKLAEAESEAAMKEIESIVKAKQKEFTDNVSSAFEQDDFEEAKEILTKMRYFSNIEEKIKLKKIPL
B2: Succinate dehydrogenase [ubiquinone] iron-sulfur subunit, mitochondrial (Homo sapiens), P21912 (parent)
chain: MAAVVALSLRRRLPATTLGGACLQASRGAQTAAATAPRIKKFAIYRWDPDKAGDKPHMQTYEVDLNKCGPMVLDALIKIKNEVDSTLTFRRSCREGICGSCAMNINGGNTLACTRRIDTNLNKVSKIYPLPHMYVIKDLVPDLSNFYAQYKSIEPYLKKKDESQEGKQQYLQSIEEREKLDGLYECILCACCSTSCPSYWWNGDKYLGPAVLMQAYRWMIDSRDDFTEERLAKLQDPFSLYRCHTIMNCTRTCPKGLNPGKAIAEIKKMMATYKEKKASV
partner: B1 chain
B3: Succinate dehydrogenase assembly factor 1, mitochondrial (Homo sapiens), A6NFY7 (parent)
chain: B1 chain
partner: B2 chain

Variants of: B1
Conditions: with hsc20_human HSCB

Variant | effect of a mutation on the interaction
MSRHSRLQRQVLYLYRRLLRAGRGKPGAEARVRAEFRQHAGLPRSDVLRIEYLYRRGRRQLQLLRSGHATAMGAFVRPRAPTGEPGGVGCQPDDGDSPRNPHDSTGAPETRPDGR | disrupting interaction strength
MSRHSRLQRQVLSLYRDLLRAGRGKPGAEARVRAEFRQHAGLPRSDVLRIESLYRDGRRQLQLLRSGHATAMGAFVRPRAPTGEPGGVGCQPDDGDSPRNPHDSTGAPETRPDGR | decreasing interaction strength
MSRHSRLQRQVLSLYRDLLRAGRGKPGAEARVRAEFRQHAGLPRSDVLRIEYLYPRGRRQLQLLRSGHATAMGAFVRPRAPTGEPGGVGCQPDDGDSPRNPHDSTGAPETRPDGR | with no effect
MSRHSRLQRQVLSLYRDLLRAGRGKPGAEARVRAEFRQHAGLPRSDVLRIEYLYRRRRRQLQLLRSGHATAMGAFVRPRAPTGEPGGVGCQPDDGDSPRNPHDSTGAPETRPDGR | with no effect
MSRHSRLQRQVLSAAADLLRAGRGKPGAEARVRAEFRQHAGLPRSDVLRIEYLYRRGRRQLQLLRSGHATAMGAFVRPRAPTGEPGGVGCQPDDGDSPRNPHDSTGAPETRPDGR | disrupting interaction strength
MSRHSRLQRQVLSVFKDLLRAGRGKPGAEARVRAEFRQHAGLPRSDVLRIEYLYRRGRRQLQLLRSGHATAMGAFVRPRAPTGEPGGVGCQPDDGDSPRNPHDSTGAPETRPDGR | with no effect
MSRHSRLQRQVLSLYRDLLRAGRGKPGAEARVRAEFRQHAGLPRSDVLRIEYAAARGRRQLQLLRSGHATAMGAFVRPRAPTGEPGGVGCQPDDGDSPRNPHDSTGAPETRPDGR | with no effect

Variants of: B2
Conditions: with sdhf1_human SDHAF1, A6NFY7

Variant | effect of a mutation on the interaction
MAAVVALSLRRRLPATTLGGACLQASRGAQTAAATAPRIKKFAIYRWDPDKAGDKPHMQTYEVDLNKCGPMVLDALIKIKNEVDSTLTFRRSCREGICGSCAMNINGGNTLACTRRIDTNLNKVSKIYPLPHMYVIKDLVPDLSNAAAAAASAEPYLKKKDESQEGKQQYLQSIEEREKLDGLYECILCACCSTSCPSYWWNGDKYLGPAVLMQAYRWMIDSRDDFTEERLAKLQDPFSLYRCHTIMNCTRTCPKGLNPGKAIAEIKKMMATYKEKKASV [F146A;Y147A;Q149A;Y150A;K151A;I153A] | disrupting interaction strength
MAAVVALSLRRRLPATTLGGACLQASRGAQTAAATAPRIKKFAIYRWDPDKAGDKPHMQTYEVDLNKCGPMVLDALIKIKNEVDSTLTFRRSCREGICGSCAMNINGGNTLACTRRIDTNLNKVSKIYPLPHMYVIKDLVPDLSNFYAQYKSIEPYLKKKDESQEGKQQYAAAIEEREKLDGLYECILCACCSTSCPSYWWNGDKYLGPAVLMQAYRWMIDSRDDFTEERLAKLQDPFSLYRCHTIMNCTRTCPKGLNPGKAIAEIKKMMATYKEKKASV [L171A;Q172A;S173A] | increasing interaction strength
MAAVVALSLRRRLPATTLGGACLQASRGAQTAAATAPRIKKFAIYRWDPDKAGDKPHMQTYEVDLNKCGPMVLDALIKIKNEVDSTLTFRRSCREGICGSCAMNINGGNTLACTRRIDTNLNKVSKIYPLPHMYVIKDLVPDLSNAYAQYKSIEPYLKKKDESQEGKQQYLQSIEEREKLDGLYECILCACCSTSCPSYWWNGDKYLGPAVLMQAYRWMIDSRDDFTEERLAKLQDPFSLYRCHTIMNCTRTCPKGLNPGKAIAEIKKMMATYKEKKASV [F146A] | decreasing interaction strength

Variants of: B3
Conditions: with sdhb_human SDHB

Variant | effect of a mutation on the interaction
MSRHSRLQRQVLSLYRDLLRAGRGKPGAEARVRAEFRQHAGLPRSDVLRIEYLYRRGRRQAQLAASGHATAMGAFVRPRAPTGEPGGVGCQPDDGDSPRNPHDSTGAPETRPDGR | decreasing interaction strength
MSRHSRLQRQVLSLYRDLLRAGRGKPGAEARVRAEFRQHAGLPRSDVLRIEYLYRAAAAQLQLLRSGHATAMGAFVRPRAPTGEPGGVGCQPDDGDSPRNPHDSTGAPETRPDGR | decreasing interaction strength
MSRHSRLQRQVLSLYRDLLRAGRGKPGAEARVRAEFRQHAGLPRSDVLRIEYAAARGRRQAQLAASGHATAMGAFVRPRAPTGEPGGVGCQPDDGDSPRNPHDSTGAPETRPDGR | disrupting interaction strength
MSRHSRLQRQVLSLYRDLLRAGRGKPGAEARVRAEFRQHAGLPRSDVLRIEYAAAAAAAQLQLLRSGHATAMGAFVRPRAPTGEPGGVGCQPDDGDSPRNPHDSTGAPETRPDGR | disrupting interaction strength

Variants of: B3
Conditions: with sdhb_human SDHB
Remark: another data set of the same source

Variant | effect of a mutation on the interaction
MSRHSRLQRQVLSAAADLLRAGRGKPGAEARVRAEFRQHAGLPRSDVLRIEYLYRRGRRQLQLLRSGHATAMGAFVRPRAPTGEPGGVGCQPDDGDSPRNPHDSTGAPETRPDGR | with no effect
MSRHSRLQRQVLSLYRDLLRAGRGKPGAEARVRAEFRQHAGLPRSDVLRIEYLYRRRRRQLQLLRSGHATAMGAFVRPRAPTGEPGGVGCQPDDGDSPRNPHDSTGAPETRPDGR | disrupting interaction strength
MSRHSRLQRQVLSLYRDLLRAGRGKPGAEARVRAEFRQHAGLPRSDVLRIEYAAARGRRQLQLLRSGHATAMGAFVRPRAPTGEPGGVGCQPDDGDSPRNPHDSTGAPETRPDGR | decreasing interaction strength
MSRHSRLQRQVLSLYRDLLRAGRGKPGAEARVRAEFRQHAGLPRSDVLRIEYLYPRGRRQLQLLRSGHATAMGAFVRPRAPTGEPGGVGCQPDDGDSPRNPHDSTGAPETRPDGR | decreasing interaction strength

— IntAct's records for PubMed 26749241
